B1: α-PsGal (Pseudoalteromonas sp. KMM 701) (protein)
chain: MADTKSFYRLDSVNSTVIFDCQSKTPALLYFGKRLSEQTTETMLTQLATRQEVKCAVVEEAPISLSPLLGEGFTGAPGLELVNDSIAWSVGPELQEVRQPSSATVEFVSVDKLRGIEVVHSITLDNNSDVLSAHTVLTNLGDSPLSVNFCAAPTFQLPDSVSKIVSFEGRWSNEFQRQSVDLVLGSFVRENRKGKTSHDVFPGLLVHNENAGEQHGECYGFHLGWSGNNKLRAELLAEGRRYVQMGELLLPGELTLAKGQTYQSPSIYGSFSSEGFSALSRNFHRFVKANLLSQAQREKARPVHYNTWEGIYFDHDVDTLKQLADKVAPLGIERFVLDDGWFKGRRGDNAGLGDWTVDYKIYPDGLSPVIDHVNSLGMEFGIWFEPEMVNPDSDLYRAHPDWVLGSENNEQLSFRNQLVLDLTRSEVVEYLYKAIDDILVEYPTIKYIKWDMNRDINHAGNFDGKPAVHQQTLALYRLIDRIKAAHPGLEIESCSSGGARVDYGVLAHTDRVWTSDSNDALDRLEIQRGCSFFFPSSVMGAHVGPRDCHITGRNVSIEMRAAVSMFGHMGIEMDPRELNDHEYNALKAAIALHKEHREFIHSADLYRLDSDDLSINFGLIDAQKTKALFAYNSVRETPRTAPNKLRFVGLDADAQYTLNLVWPVKFEEYRPSSIAAVNGQTFTGEALMQFGLQMPISFPQTSLIFELNKA
notes: mature ca. 80 kDa; E. coli Rosetta (DE3); GH36
B2: α-PsGal (Pseudoalteromonas sp. KMM 701; C494N) (protein)
chain: MADTKSFYRLDSVNSTVIFDCQSKTPALLYFGKRLSEQTTETMLTQLATRQEVKCAVVEEAPISLSPLLGEGFTGAPGLELVNDSIAWSVGPELQEVRQPSSATVEFVSVDKLRGIEVVHSITLDNNSDVLSAHTVLTNLGDSPLSVNFCAAPTFQLPDSVSKIVSFEGRWSNEFQRQSVDLVLGSFVRENRKGKTSHDVFPGLLVHNENAGEQHGECYGFHLGWSGNNKLRAELLAEGRRYVQMGELLLPGELTLAKGQTYQSPSIYGSFSSEGFSALSRNFHRFVKANLLSQAQREKARPVHYNTWEGIYFDHDVDTLKQLADKVAPLGIERFVLDDGWFKGRRGDNAGLGDWTVDYKIYPDGLSPVIDHVNSLGMEFGIWFEPEMVNPDSDLYRAHPDWVLGSENNEQLSFRNQLVLDLTRSEVVEYLYKAIDDILVEYPTIKYIKWDMNRDINHAGNFDGKPAVHQQTLALYRLIDRIKAAHPGLEIESNSSGGARVDYGVLAHTDRVWTSDSNDALDRLEIQRGCSFFFPSSVMGAHVGPRDCHITGRNVSIEMRAAVSMFGHMGIEMDPRELNDHEYNALKAAIALHKEHREFIHSADLYRLDSDDLSINFGLIDAQKTKALFAYNSVRETPRTAPNKLRFVGLDADAQYTLNLVWPVKFEEYRPSSIAAVNGQTFTGEALMQFGLQMPISFPQTSLIFELNKA
notes: as for B1

Substrate: O=[N+]([O-])c1ccc(O[C@H]2O[C@H](CO)[C@H](O)[C@H](O)[C@H]2O)cc1
Test: purified protein
Type: biochemical, Pseudoalteromonas sp. KMM 701
Details: sodium phosphate (0.05 M in table footnote, 0.1 M in methods), pH 7.0, 20 °C

Row | Protein | Km | Vmax | kcat | kcat/Km
1 | B1 | 400 ± 30 µM | 320 µM/min | 324 ± 3.5 s⁻¹ | 820000 M⁻¹ s⁻¹
2 | B2 | 300 ± 5 µM | 24 µM/min | – | –

Source: publication PMC6213131, “Characterization of Properties and Transglycosylation Abilities of Recombinant α-Galactosidase from Cold-Adapted Marine Bacterium Pseudoalteromonas KMM 701 and Its C494N and D451A Mutants” (Marine Drugs, 2018)
